We go through two substances from US6306273A, “Methods and compositions for conducting processes in microfluidic devices” (Aclara BioSciences, Inc., priority 1999, dated 2001).

Ends that are not written are not given here. * marks the point of attachment. FITC = O=C1OC2(c3ccc(O)cc3Oc3cc(O)ccc32)c2ccc(NC(=S)*)cc21

The nature of this series: Separation of FITC labeled peptides in dynamically coated chip; charge from migration time relative to EOF. Conditions: 0.05% ammonium guar; determined by migration time relative to EOF. It is filed as physicochemical. An excerpt:
The coating procedure and the separation conditions were the same as described previously. The surface modifying polymer was 0.05% ammonium guar. Three FITC labeled peptides (obtained from AnaSpec, San Jose, Calif.), which differed by one charge from each other (FITC-KKAA, FITC-KKKA and FITC-KKKK), were separated and detected 0.5 cm from the injection point on the anodal side. […] FITC-KKKA and FITC-KKKK migrated electrophoretically against the EOF. The net charge of FITC-KKKK was greater than +1.

On to “FITC-KKKA: FITC labeled peptide, SEQ ID NO:2, from AnaSpec ({FITC}-KKKA)”, for which the net charge entry was “positive charged”.

As to “FITC-KKAA: FITC labeled peptide, SEQ ID NO:1, from AnaSpec ({FITC}-KKAA)”, the net charge entry is listed as “negatively charged”.
